According to patent US20050143559:
Where two headings read alike, the source gives them in different places.

Legend:
[1] = system: tryparedoxin peroxidase isolated from Crithidia fasciculata
[2] = target: tryparedoxin peroxidase isolated from Crithidia fasciculata; remark: listed apart in the source

Molecule	specific activity (coupled NADPH consumption assay) [1]	specific activity (coupled NADPH consumption assay) [2] [U/mg]
authentic tryparedoxin I isolated from Crithidia fasciculata	2.3 U/mg for the authentic enzyme	
TQSLPSSFLASLEHHHHHH [recombinant tryparedoxin II containing a His tag (expressed from pET/TXN II H6 in E. coli BL21(DE3))]		7.7
